In US20230416352A1:

Target: Cynomolgus monkey CTGF-Fc (cynomolgus monkey)
Assay: ELISA, cyno-CTGF-mFc captured by anti-mFc

Sequence of Cynomolgus monkey CTGF-Fc (cynomolgus monkey) (P29279 other isoform, or with tags, fused parts or gaps limits assumed): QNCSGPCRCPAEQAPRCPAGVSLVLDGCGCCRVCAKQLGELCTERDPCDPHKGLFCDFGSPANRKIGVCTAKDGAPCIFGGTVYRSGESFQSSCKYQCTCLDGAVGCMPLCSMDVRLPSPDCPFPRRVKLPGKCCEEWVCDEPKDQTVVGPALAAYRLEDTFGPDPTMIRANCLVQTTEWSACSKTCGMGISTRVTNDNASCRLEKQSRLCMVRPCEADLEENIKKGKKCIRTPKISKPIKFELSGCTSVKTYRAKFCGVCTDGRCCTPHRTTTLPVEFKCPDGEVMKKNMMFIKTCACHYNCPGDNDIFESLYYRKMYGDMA

EC50 [pM] | Binder
144 | Hu147-34wk (antibody, human IgG1, kappa, V domains shown) VH: EVQLVESGGGLVQPGGSLRLSCAASGFSFNTYAMNWVRQAPGKGLEWVARIRTKSNNYATYYADSVKDRFTISRDDSESSLYLQMNSLKTEDTAVYYCVETGFAYWDQGTLVTVSS VL: DIQMTQSPSSLSASVGDRVTITCSASSSVSYMHWFQQKPGKSPKLLIYSTSNLASGVPSRFSGSGSGTDYTLTISSLQPEDFATYYCQQRSSYPLTFGQGTKLEIKR
70 | Hu147-31wk (antibody, human IgG1, kappa, V domains shown) VH: EVQLVESGGGLVQPGGSLRLSCAASGFSFNTYAMNWVRQAPGKGLEWVARIRTKSNNYATYYADSVKDRFTISRDDSESSLYLQMNSLKTEDTAVYYCVETGFAYWDQGTLVTVSS VL: EIVLTQSPATLSLSPGERATLSCSASSSVSYMHWFQQKPGQSPRLLIYSTSNLASGIPARFSGSGSGTDYTLTISSLEPEDFAVYYCQQRSSYPLTFGQGTKLEIKR
80 | Hu147-24wk (antibody, human IgG1, kappa, V domains shown) VH: EVQLVESGGGLVQPGGSLRLSCAASGFTFNTYAMNWVRQAPGKGLEWVARIRTKSNNYATYYADSVKDRFTISRDDSKNSLYLQMNSLKTEDTAVYYCVETGFAYWDQGTLVTVSS VL: DIQMTQSPSSLSASVGDRVTITCSASSSVSYMHWFQQKPGKSPKLLIYSTSNLASGVPSRFSGSGSGTDYTLTISSLQPEDFATYYCQQRSSYPLTFGQGTKLEIKR
79 | Hu147-32wk (antibody, human IgG1, kappa, V domains shown) VH: EVQLVESGGGLVQPGGSLRLSCAASGFSFNTYAMNWVRQAPGKGLEWVARIRTKSNNYATYYADSVKDRFTISRDDSESSLYLQMNSLKTEDTAVYYCVETGFAYWDQGTLVTVSS VL: EIVLTQSPATLSLSPGERATLSCSASSSVSYMHWFQQKPGQSPKLLIYSTSNLASGIPARFSGSGSGTDYTLTISSLEPEDFAVYYCQQRSSYPLTFGQGTKLEIKR
44 | Hu147-33wk (antibody, human IgG1, kappa, V domains shown) VH: EVQLVESGGGLVQPGGSLRLSCAASGFSFNTYAMNWVRQAPGKGLEWVARIRTKSNNYATYYADSVKDRFTISRDDSESSLYLQMNSLKTEDTAVYYCVETGFAYWDQGTLVTVSS VL: EIVLTQSPATLSLSPGERATLSCSASSSVSYMHWFQQKPGQSPKLWIYSTSNLASGVPARFSGSGSGTDYTLTISSLEPEDFAVYYCQQRSSYPLTFGQGTKLEIKR
29 | Hu164-57wl (antibody, human IgG1, lambda, V domains shown) VH: EVTLKESGPVLVKPTETLTLTCTVSGFSLSTFGVHWIRQPPGKALEWLAVIWRRGGTDYNAAFMSRLTISKDTSKSQVVLTMTNMDPVDTATYYCARDGGFDYWGQGTTVTVSS VL: ETVVTQEPSLTVSPGGTVTLTCRSSIGAVTTSNYANWVQQKPGQAFRGLIGGTSNRAPWTPARFSGSLLGGKAALTLSGVQPEDEAEYYCALWYSTHYVFGGGTKLTVLG
38 | Hu164-77wl (antibody, human IgG1, lambda, V domains shown) VH: EVQLQESGPGLVKPSQTLSLTCTVSGFSISTFGVHWIRQHPGKGLEWIGVIWRRGGTDYNAAFMSRVTISKDTSKNQVSLKLSSVTAADTAVYYCARDGGFDYWGQGTTVTVSS VL: ETVVTQEPSLTVSPGGTVTLTCRSSIGAVTTSNYANWVQQKPGQAFRGLIGGTSNRAPWTPARFSGSLLGGKAALTLSGVQPEDEAEYYCALWYSTHYVFGGGTKLTVLG
32 | Hu164-69wl (antibody, human IgG1, lambda, V domains shown) VH: EVTLKESGPVLVKPTETLTLTCTVSGFSLSTFGVHWIRQPPGKGLEWLGVIWRRGGTDYNAAFMSRLTISKDTSKSQVVFTMTNMDPVDTATYYCARDGGFDYWGQGTTVTVSS VL: ESVVTQPPSVSGAPGQRVTISCRSSIGAVTTSNYANWVQQLPGTAFKGLIGGTSNRAPGVPDRFSGSKSGTSASLAITGLQAEDEADYYCALWYSTHYVFGGGTKLTVLG
36 | Hu164-68wl (antibody, human IgG1, lambda, V domains shown) VH: EVTLKESGPVLVKPTETLTLTCTVSGFSLSTFGVHWIRQPPGKGLEWLGVIWRRGGTDYNAAFMSRLTISKDTSKSQVVFTMTNMDPVDTATYYCARDGGFDYWGQGTTVTVSS VL: ETVVTQEPSFSVSPGGTVTLTCRSSIGAVTTSNYANWVQQTPGQAFRGLIGGTSNRAPGVPDRFSGSILGNKAALTITGAQADDESDYYCALWYSTHYVFGGGTKLTVLG
34 | Hu164-87wl (antibody, human IgG1, lambda, V domains shown) VH: EVQLQESGPGLVKPSQTLSLTCTVSGFSISTFGVHWIRQHPGKGLEWLGVIWRRGGTDYNAAFMSRLTISKDTSKNQVSFKLSSVTAADTAVYYCARDGGFDYWGQGTTVTVSS VL: ETVVTQEPSLTVSPGGTVTLTCRSSIGAVTTSNYANWVQQKPGQAFRGLIGGTSNRAPWTPARFSGSLLGGKAALTLSGVQPEDEAEYYCALWYSTHYVFGGGTKLTVLG

The next lines start with the binder.

Binder | EC50 [pM]
Hu147-11wk (antibody, human IgG1, kappa, V domains shown) VH: EVQLVESGGGLVQPGGSLRLSCAASGFTFSTYAMNWVRQAPGKGLEWVGRIRTKSNNYATYYADSVKDRFTISRDDSKNSLYLQMNSLKTEDTAVYYCVETGFAYWDQGTLVTVSS VL: EIVLTQSPATLSLSPGERATLSCSASSSVSYMHWFQQKPGQSPRLLIYSTSNLASGIPARFSGSGSGTDYTLTISSLEPEDFAVYYCQQRSSYPLTFGQGTKLEIKR | 52
Hu147-21wk (antibody, human IgG1, kappa, V domains shown) VH: EVQLVESGGGLVQPGGSLRLSCAASGFTFNTYAMNWVRQAPGKGLEWVARIRTKSNNYATYYADSVKDRFTISRDDSKNSLYLQMNSLKTEDTAVYYCVETGFAYWDQGTLVTVSS VL: EIVLTQSPATLSLSPGERATLSCSASSSVSYMHWFQQKPGQSPRLLIYSTSNLASGIPARFSGSGSGTDYTLTISSLEPEDFAVYYCQQRSSYPLTFGQGTKLEIKR | 53
Hu147-12wk (antibody, human IgG1, kappa, V domains shown) VH: EVQLVESGGGLVQPGGSLRLSCAASGFTFSTYAMNWVRQAPGKGLEWVGRIRTKSNNYATYYADSVKDRFTISRDDSKNSLYLQMNSLKTEDTAVYYCVETGFAYWDQGTLVTVSS VL: EIVLTQSPATLSLSPGERATLSCSASSSVSYMHWFQQKPGQSPKLLIYSTSNLASGIPARFSGSGSGTDYTLTISSLEPEDFAVYYCQQRSSYPLTFGQGTKLEIKR | 62
Hu147-13wk (antibody, human IgG1, kappa, V domains shown) VH: EVQLVESGGGLVQPGGSLRLSCAASGFTFSTYAMNWVRQAPGKGLEWVGRIRTKSNNYATYYADSVKDRFTISRDDSKNSLYLQMNSLKTEDTAVYYCVETGFAYWDQGTLVTVSS VL: EIVLTQSPATLSLSPGERATLSCSASSSVSYMHWFQQKPGQSPKLWIYSTSNLASGVPARFSGSGSGTDYTLTISSLEPEDFAVYYCQQRSSYPLTFGQGTKLEIKR | 43
Hu147-22wk (antibody, human IgG1, kappa, V domains shown) VH: EVQLVESGGGLVQPGGSLRLSCAASGFTFNTYAMNWVRQAPGKGLEWVARIRTKSNNYATYYADSVKDRFTISRDDSKNSLYLQMNSLKTEDTAVYYCVETGFAYWDQGTLVTVSS VL: EIVLTQSPATLSLSPGERATLSCSASSSVSYMHWFQQKPGQSPKLLIYSTSNLASGIPARFSGSGSGTDYTLTISSLEPEDFAVYYCQQRSSYPLTFGQGTKLEIKR | 73
Hu147-14wk (antibody, human IgG1, kappa, V domains shown) VH: EVQLVESGGGLVQPGGSLRLSCAASGFTFSTYAMNWVRQAPGKGLEWVGRIRTKSNNYATYYADSVKDRFTISRDDSKNSLYLQMNSLKTEDTAVYYCVETGFAYWDQGTLVTVSS VL: DIQMTQSPSSLSASVGDRVTITCSASSSVSYMHWFQQKPGKSPKLLIYSTSNLASGVPSRFSGSGSGTDYTLTISSLQPEDFATYYCQQRSSYPLTFGQGTKLEIKR | 77
Hu147-23wk (antibody, human IgG1, kappa, V domains shown) VH: EVQLVESGGGLVQPGGSLRLSCAASGFTFNTYAMNWVRQAPGKGLEWVARIRTKSNNYATYYADSVKDRFTISRDDSKNSLYLQMNSLKTEDTAVYYCVETGFAYWDQGTLVTVSS VL: EIVLTQSPATLSLSPGERATLSCSASSSVSYMHWFQQKPGQSPKLWIYSTSNLASGVPARFSGSGSGTDYTLTISSLEPEDFAVYYCQQRSSYPLTFGQGTKLEIKR | 63
Hu147-15wk (antibody, human IgG1, kappa, V domains shown) VH: EVQLVESGGGLVQPGGSLRLSCAASGFTFSTYAMNWVRQAPGKGLEWVGRIRTKSNNYATYYADSVKDRFTISRDDSKNSLYLQMNSLKTEDTAVYYCVETGFAYWDQGTLVTVSS VL: DIQLTQSPSSLSASVGDRVTITCSASSSVSYMHWFQQKPGKSPKLWIYSTSNLASGVPSRFSGSGSGTDYTLTISSLQPEDFATYYCQQRSSYPLTFGQGTKLEIKR | 53
Hu95-51yk (antibody, human IgG1, kappa, V domains shown) VH: EVQLVQSGAEVKKPGASVKVSCRASGFTFTNYAIHWVKQAPGQRLEWMGLVYPYTGGTAYNQKFKDKVTLTFDTSASTAYMELSSLRSEDTAVYYCARWGMIPGTNSYFDVWGQGTTVTVSS VL: EIVLTQSPATLSLSPGERATLSCRASSSVSYIHWYQQKPGQAPRPWIYATSNLASGIPARFSGSGSGTDYTLTISRLEPEDFAVYYCQQWNSNPWTFGGGTKVEIKR | 59
